{"source": "paper PMC11868986", "about": "“Identification of Schizophrenia‐Risk Regulatory Variant rs1399178 in the Non‐coding Region With Its Impact on NRF1 Binding”", "binders": {"B1": {"name": "RS(WT) / RS(G) (dsDNA)", "DNA 1": "GGCGCAGCCGCAGC", "DNA 2": "GCTGCGGCTGCGCC"}}, "target": "T1, NRF1 DD-DBD (Homo sapiens, UniProt Q16656 49-288)", "T1 sequence": "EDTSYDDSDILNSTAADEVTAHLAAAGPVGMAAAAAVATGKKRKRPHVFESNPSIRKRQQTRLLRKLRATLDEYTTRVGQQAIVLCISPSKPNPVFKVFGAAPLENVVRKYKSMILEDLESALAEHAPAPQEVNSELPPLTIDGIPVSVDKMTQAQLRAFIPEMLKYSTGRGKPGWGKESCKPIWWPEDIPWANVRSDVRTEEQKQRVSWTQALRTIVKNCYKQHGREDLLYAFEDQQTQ", "test": "ITC; two-site fit; DNA 500 uM into 50 uM protein; Kd only in Fig 4B; ITC: 50 mM Tris pH 8.0, 100 mM NaCl, 1 mM EDTA, 1 mM DTT, 25 C; EMSA: Thermo 20148 kit, SH-SY5Y nuclear extract", "settings": "protein: recombinant; cleaved with HRV 3C when needed; chain copies: 2", "data": [{"binder": "B1", "values": [{"measurement": "binding result", "value": "binds"}]}]}
